Data from US20260167699A1 (Chugai, published 2026).

Key:
Assay in all cases: SPR, relative to GpH7-A5/GpH7-B3/GpL16-k0 =100
[1] = molecular target: T1, FcγRIIa(H) (human, UniProt P12318 34-217)
T1 construct: extracellular domain; also called 2aH
T1 sequence: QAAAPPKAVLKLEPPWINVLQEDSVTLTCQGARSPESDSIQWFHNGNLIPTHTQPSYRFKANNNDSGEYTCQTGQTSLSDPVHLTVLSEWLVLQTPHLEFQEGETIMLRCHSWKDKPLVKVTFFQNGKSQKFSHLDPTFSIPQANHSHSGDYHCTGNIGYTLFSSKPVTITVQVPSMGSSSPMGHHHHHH

[2] = molecular target: T2, FcγRIIa(R) (human, UniProt P12318 34-217)
T2 construct: extracellular domain; also called 2aR
T2 sequence: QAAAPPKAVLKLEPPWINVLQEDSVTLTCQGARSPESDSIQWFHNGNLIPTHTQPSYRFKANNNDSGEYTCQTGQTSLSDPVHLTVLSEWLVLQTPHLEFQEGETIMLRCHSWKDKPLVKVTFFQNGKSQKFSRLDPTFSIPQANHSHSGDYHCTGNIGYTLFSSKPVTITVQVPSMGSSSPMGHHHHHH

[3] = molecular target: T3, FcγRIIb (human, UniProt P31994 43-217)
T3 construct: extracellular domain; also called 2b
T3 sequence: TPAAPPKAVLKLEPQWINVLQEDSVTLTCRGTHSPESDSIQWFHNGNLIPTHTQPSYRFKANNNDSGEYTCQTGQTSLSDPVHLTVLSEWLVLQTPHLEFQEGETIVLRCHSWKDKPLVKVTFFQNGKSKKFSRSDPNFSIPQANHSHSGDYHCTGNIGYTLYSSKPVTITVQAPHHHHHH

[4] = molecular target: T4, FcγRIa (human, UniProt P12314 16-292)
T4 construct: extracellular domain; also called 1a
T4 sequence (P12314 other isoform, or with tags, fused parts or gaps): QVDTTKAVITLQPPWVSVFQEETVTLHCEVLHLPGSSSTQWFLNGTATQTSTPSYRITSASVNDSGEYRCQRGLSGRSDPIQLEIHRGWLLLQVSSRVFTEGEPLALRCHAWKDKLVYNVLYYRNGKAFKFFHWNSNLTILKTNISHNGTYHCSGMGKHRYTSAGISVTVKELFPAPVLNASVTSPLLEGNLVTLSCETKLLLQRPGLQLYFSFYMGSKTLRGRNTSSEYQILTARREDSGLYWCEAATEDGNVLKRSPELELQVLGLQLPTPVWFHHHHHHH

B1: GpH7-A5/GpH7-B3 variant N325_09D/GpL16-k0 (antibody, human IgG1, kappa)
heavy 1: not shown
heavy 2: not shown
light: DIVMTQSPLSLPVTPGEPASISCQASESLVHSNRNTYLHWYLQKPGQSPQLLIYKVSNRFSGVPDRFSGSGSGTDFTLKISRVEAEDVGVYYCSQNTHVPPTFGQGTKVEIERTVAAPSVFIFPPSDEQLKSGTASVVCLLNNFYPREAKVQWKVDNALQSGNSQESVTEQDSKDSTYSLSSTLTLSKADYEKHKVYACEVTHQGLSSPVTKSFNRGEC
notes: He Ab: heterodimerized IgG1, one H chain mutated
He/Con 2aH [1]: 55.3% | He/Con 2aR [2]: 111% | He/Con 2b [3]: 139% | He/Con 1a [4]: 105%

B2: GpH7-A5/GpH7-B3 variant Q295_01G/GpL16-k0 (antibody, human IgG1, kappa)
heavy 1: not shown
heavy 2: not shown
light: DIVMTQSPLSLPVTPGEPASISCQASESLVHSNRNTYLHWYLQKPGQSPQLLIYKVSNRFSGVPDRFSGSGSGTDFTLKISRVEAEDVGVYYCSQNTHVPPTFGQGTKVEIERTVAAPSVFIFPPSDEQLKSGTASVVCLLNNFYPREAKVQWKVDNALQSGNSQESVTEQDSKDSTYSLSSTLTLSKADYEKHKVYACEVTHQGLSSPVTKSFNRGEC
notes: as for B1
He/Con 2aH [1]: 62.5% | He/Con 2aR [2]: 60.3% | He/Con 2b [3]: 51.6% | He/Con 1a [4]: 96.1%

B3: GpH7-A5/GpH7-B3 variant S298_14T/GpL16-k0 (antibody, human IgG1, kappa)
heavy 1: not shown
heavy 2: not shown
light: DIVMTQSPLSLPVTPGEPASISCQASESLVHSNRNTYLHWYLQKPGQSPQLLIYKVSNRFSGVPDRFSGSGSGTDFTLKISRVEAEDVGVYYCSQNTHVPPTFGQGTKVEIERTVAAPSVFIFPPSDEQLKSGTASVVCLLNNFYPREAKVQWKVDNALQSGNSQESVTEQDSKDSTYSLSSTLTLSKADYEKHKVYACEVTHQGLSSPVTKSFNRGEC
notes: as for B1
He/Con 2aH [1]: 96.2% | He/Con 2aR [2]: 94.2% | He/Con 2b [3]: 79% | He/Con 1a [4]: 104%

B4: GpH7-A5/GpH7-B3 variant S298_03V/GpL16-k0 (antibody, human IgG1, kappa)
heavy 1: not shown
heavy 2: not shown
light: DIVMTQSPLSLPVTPGEPASISCQASESLVHSNRNTYLHWYLQKPGQSPQLLIYKVSNRFSGVPDRFSGSGSGTDFTLKISRVEAEDVGVYYCSQNTHVPPTFGQGTKVEIERTVAAPSVFIFPPSDEQLKSGTASVVCLLNNFYPREAKVQWKVDNALQSGNSQESVTEQDSKDSTYSLSSTLTLSKADYEKHKVYACEVTHQGLSSPVTKSFNRGEC
notes: as for B1
He/Con 2aH [1]: 83.2% | He/Con 2aR [2]: 82.5% | He/Con 2b [3]: 65.4% | He/Con 1a [4]: 106%

B5: GpH7-A5/GpH7-B3 variant S298_12R/GpL16-k0 (antibody, human IgG1, kappa)
heavy 1: not shown
heavy 2: not shown
light: DIVMTQSPLSLPVTPGEPASISCQASESLVHSNRNTYLHWYLQKPGQSPQLLIYKVSNRFSGVPDRFSGSGSGTDFTLKISRVEAEDVGVYYCSQNTHVPPTFGQGTKVEIERTVAAPSVFIFPPSDEQLKSGTASVVCLLNNFYPREAKVQWKVDNALQSGNSQESVTEQDSKDSTYSLSSTLTLSKADYEKHKVYACEVTHQGLSSPVTKSFNRGEC
notes: as for B1
He/Con 2aH [1]: 67.4% | He/Con 2aR [2]: 81.6% | He/Con 2b [3]: 58.6% | He/Con 1a [4]: 106%

B6: GpH7-A5/GpH7-B3 variant P329_09D/GpL16-k0 (antibody, human IgG1, kappa)
heavy 1: not shown
heavy 2: not shown
light: DIVMTQSPLSLPVTPGEPASISCQASESLVHSNRNTYLHWYLQKPGQSPQLLIYKVSNRFSGVPDRFSGSGSGTDFTLKISRVEAEDVGVYYCSQNTHVPPTFGQGTKVEIERTVAAPSVFIFPPSDEQLKSGTASVVCLLNNFYPREAKVQWKVDNALQSGNSQESVTEQDSKDSTYSLSSTLTLSKADYEKHKVYACEVTHQGLSSPVTKSFNRGEC
notes: as for B1
He/Con 2aH [1]: 57.1% | He/Con 2aR [2]: 76% | He/Con 2b [3]: 60.4% | He/Con 1a [4]: 80.1%

B7: GpH7-A5/GpH7-B3 variant S298_08L/GpL16-k0 (antibody, human IgG1, kappa)
heavy 1: not shown
heavy 2: not shown
light: DIVMTQSPLSLPVTPGEPASISCQASESLVHSNRNTYLHWYLQKPGQSPQLLIYKVSNRFSGVPDRFSGSGSGTDFTLKISRVEAEDVGVYYCSQNTHVPPTFGQGTKVEIERTVAAPSVFIFPPSDEQLKSGTASVVCLLNNFYPREAKVQWKVDNALQSGNSQESVTEQDSKDSTYSLSSTLTLSKADYEKHKVYACEVTHQGLSSPVTKSFNRGEC
notes: as for B1
He/Con 2aH [1]: 83% | He/Con 2aR [2]: 100% | He/Con 2b [3]: 110% | He/Con 1a [4]: 104%

B8: GpH7-A5/GpH7-B3 variant S298_06M/GpL16-k0 (antibody, human IgG1, kappa)
heavy 1: not shown
heavy 2: not shown
light: DIVMTQSPLSLPVTPGEPASISCQASESLVHSNRNTYLHWYLQKPGQSPQLLIYKVSNRFSGVPDRFSGSGSGTDFTLKISRVEAEDVGVYYCSQNTHVPPTFGQGTKVEIERTVAAPSVFIFPPSDEQLKSGTASVVCLLNNFYPREAKVQWKVDNALQSGNSQESVTEQDSKDSTYSLSSTLTLSKADYEKHKVYACEVTHQGLSSPVTKSFNRGEC
notes: as for B1
He/Con 2aH [1]: 95.8% | He/Con 2aR [2]: 104% | He/Con 2b [3]: 103% | He/Con 1a [4]: 111%

B9: GpH7-A5/GpH7-B3 variant S298_01G/GpL16-k0 (antibody, human IgG1, kappa)
heavy 1: not shown
heavy 2: not shown
light: DIVMTQSPLSLPVTPGEPASISCQASESLVHSNRNTYLHWYLQKPGQSPQLLIYKVSNRFSGVPDRFSGSGSGTDFTLKISRVEAEDVGVYYCSQNTHVPPTFGQGTKVEIERTVAAPSVFIFPPSDEQLKSGTASVVCLLNNFYPREAKVQWKVDNALQSGNSQESVTEQDSKDSTYSLSSTLTLSKADYEKHKVYACEVTHQGLSSPVTKSFNRGEC
notes: as for B1
He/Con 2aH [1]: 71.4% | He/Con 2aR [2]: 94.5% | He/Con 2b [3]: 81.2% | He/Con 1a [4]: 100%

B10: GpH7-A5/GpH7-B3 variant S298_11K/GpL16-k0 (antibody, human IgG1, kappa)
heavy 1: not shown
heavy 2: not shown
light: DIVMTQSPLSLPVTPGEPASISCQASESLVHSNRNTYLHWYLQKPGQSPQLLIYKVSNRFSGVPDRFSGSGSGTDFTLKISRVEAEDVGVYYCSQNTHVPPTFGQGTKVEIERTVAAPSVFIFPPSDEQLKSGTASVVCLLNNFYPREAKVQWKVDNALQSGNSQESVTEQDSKDSTYSLSSTLTLSKADYEKHKVYACEVTHQGLSSPVTKSFNRGEC
notes: as for B1
He/Con 2aH [1]: 63.9% | He/Con 2aR [2]: 91% | He/Con 2b [3]: 62.2% | He/Con 1a [4]: 106%

B11: GpH7-A5/GpH7-B3 variant N325_13S/GpL16-k0 (antibody, human IgG1, kappa)
heavy 1: not shown
heavy 2: not shown
light: DIVMTQSPLSLPVTPGEPASISCQASESLVHSNRNTYLHWYLQKPGQSPQLLIYKVSNRFSGVPDRFSGSGSGTDFTLKISRVEAEDVGVYYCSQNTHVPPTFGQGTKVEIERTVAAPSVFIFPPSDEQLKSGTASVVCLLNNFYPREAKVQWKVDNALQSGNSQESVTEQDSKDSTYSLSSTLTLSKADYEKHKVYACEVTHQGLSSPVTKSFNRGEC
notes: as for B1
He/Con 2aH [1]: 83% | He/Con 2aR [2]: 137% | He/Con 2b [3]: 198% | He/Con 1a [4]: 102%

B12: GpH7-A5/GpH7-B3 variant P329_10E/GpL16-k0 (antibody, human IgG1, kappa)
heavy 1: not shown
heavy 2: not shown
light: DIVMTQSPLSLPVTPGEPASISCQASESLVHSNRNTYLHWYLQKPGQSPQLLIYKVSNRFSGVPDRFSGSGSGTDFTLKISRVEAEDVGVYYCSQNTHVPPTFGQGTKVEIERTVAAPSVFIFPPSDEQLKSGTASVVCLLNNFYPREAKVQWKVDNALQSGNSQESVTEQDSKDSTYSLSSTLTLSKADYEKHKVYACEVTHQGLSSPVTKSFNRGEC
notes: as for B1
He/Con 2aH [1]: 57.6% | He/Con 2aR [2]: 72.7% | He/Con 2b [3]: 59.5% | He/Con 1a [4]: 81.4%

B13: GpH7-A5/GpH7-B3 variant S298_02A/GpL16-k0 (antibody, human IgG1, kappa)
heavy 1: not shown
heavy 2: not shown
light: DIVMTQSPLSLPVTPGEPASISCQASESLVHSNRNTYLHWYLQKPGQSPQLLIYKVSNRFSGVPDRFSGSGSGTDFTLKISRVEAEDVGVYYCSQNTHVPPTFGQGTKVEIERTVAAPSVFIFPPSDEQLKSGTASVVCLLNNFYPREAKVQWKVDNALQSGNSQESVTEQDSKDSTYSLSSTLTLSKADYEKHKVYACEVTHQGLSSPVTKSFNRGEC
notes: as for B1
He/Con 2aH [1]: 74.3% | He/Con 2aR [2]: 87.2% | He/Con 2b [3]: 74.4% | He/Con 1a [4]: 103%

B14: GpH7-A5/GpH7-B3 variant S298_15Y/GpL16-k0 (antibody, human IgG1, kappa)
heavy 1: not shown
heavy 2: not shown
light: DIVMTQSPLSLPVTPGEPASISCQASESLVHSNRNTYLHWYLQKPGQSPQLLIYKVSNRFSGVPDRFSGSGSGTDFTLKISRVEAEDVGVYYCSQNTHVPPTFGQGTKVEIERTVAAPSVFIFPPSDEQLKSGTASVVCLLNNFYPREAKVQWKVDNALQSGNSQESVTEQDSKDSTYSLSSTLTLSKADYEKHKVYACEVTHQGLSSPVTKSFNRGEC
notes: as for B1
He/Con 2aH [1]: 71.2% | He/Con 2aR [2]: 75.7% | He/Con 2b [3]: 62.2% | He/Con 1a [4]: 104%

B15: GpH7-A5/GpH7-B3 variant S298_04F/GpL16-k0 (antibody, human IgG1, kappa)
heavy 1: not shown
heavy 2: not shown
light: DIVMTQSPLSLPVTPGEPASISCQASESLVHSNRNTYLHWYLQKPGQSPQLLIYKVSNRFSGVPDRFSGSGSGTDFTLKISRVEAEDVGVYYCSQNTHVPPTFGQGTKVEIERTVAAPSVFIFPPSDEQLKSGTASVVCLLNNFYPREAKVQWKVDNALQSGNSQESVTEQDSKDSTYSLSSTLTLSKADYEKHKVYACEVTHQGLSSPVTKSFNRGEC
notes: as for B1
He/Con 2aH [1]: 75.5% | He/Con 2aR [2]: 80.4% | He/Con 2b [3]: 66.3% | He/Con 1a [4]: 106%

B16: GpH7-A5/GpH7-B3 variant S298_07I/GpL16-k0 (antibody, human IgG1, kappa)
heavy 1: not shown
heavy 2: not shown
light: DIVMTQSPLSLPVTPGEPASISCQASESLVHSNRNTYLHWYLQKPGQSPQLLIYKVSNRFSGVPDRFSGSGSGTDFTLKISRVEAEDVGVYYCSQNTHVPPTFGQGTKVEIERTVAAPSVFIFPPSDEQLKSGTASVVCLLNNFYPREAKVQWKVDNALQSGNSQESVTEQDSKDSTYSLSSTLTLSKADYEKHKVYACEVTHQGLSSPVTKSFNRGEC
notes: as for B1
He/Con 2aH [1]: 84.9% | He/Con 2aR [2]: 86.2% | He/Con 2b [3]: 71.5% | He/Con 1a [4]: 104%
